Consider 1 molecule from article PMC6450391 (Nature immunology, 2019).

The assay concerns the target T1, 1CARD-SUMO (caspase-1 CARD with carboxy-terminal SUMO, after TEV cleavage of MBP-1CARD-SUMO) (human, UniProt P29466 1-91).
T1 sequence (looked up): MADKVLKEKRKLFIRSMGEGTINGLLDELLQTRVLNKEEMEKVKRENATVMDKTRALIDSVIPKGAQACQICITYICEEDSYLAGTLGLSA
In words: cross-linking.

B1: SERPINB1, purified, amino-terminal SUMO cleaved (natural protein, human, UniProt P30740 1-379, looked up)
chain: MEQLSSANTRFALDLFLALSENNPAGNIFISPFSISSAMAMVFLGTRGNTAAQLSKTFHFNTVEEVHSRFQSLNADINKRGASYILKLANRLYGEKTYNFLPEFLVSTQKTYGADLASVDFQHASEDARKTINQWVKGQTEGKIPELLASGMVDNMTKLVLVNAIYFKGNWKDKFMKEATTNAPFRLNKKDRKTVKMMYQKKKFAYGYIEDLKCRVLELPYQGEELSMVILLPDDIEDESTGLKKIEEQLTLEKLHEWTKPENLDFIEVNVSLPRFKLEESYTLNSDLARLGVQDLFNSSKADLSGMSGARDIFISKIVHKSFVEVNEEGTEAAAATAGIATFCMLMPEENFTADHPFLFFIRHNSSGSILFLGRFSSP
Regarding B1, the “fold decrease in 1CARD oligomer with SERPINB1 against without SERPINB1” value is 4.18 fold and the “fold increase in 1CARD monomer with SERPINB1 against without SERPINB1” value is 7.48 fold.
